Reference: US20130184211A1 (NEW YORK UNIVERSITY, published 2013)

T1: 1:1 binary complex of the ectodomains of FGFR1c and Klotho (human; murine, UniProt O35082 35-982)
T1 construct: range 35-982; also called FGFR1c-Klotho complex; binary FGFR1c-Klotho complex; not shown: C-terminal FLAG tag
T1 sequence 1: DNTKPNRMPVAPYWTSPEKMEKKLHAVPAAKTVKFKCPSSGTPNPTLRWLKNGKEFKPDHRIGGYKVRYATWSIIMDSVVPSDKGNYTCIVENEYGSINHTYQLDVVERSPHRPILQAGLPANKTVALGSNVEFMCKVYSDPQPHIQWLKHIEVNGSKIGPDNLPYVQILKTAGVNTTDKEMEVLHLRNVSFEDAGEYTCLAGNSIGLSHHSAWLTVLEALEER
T1 sequence 2: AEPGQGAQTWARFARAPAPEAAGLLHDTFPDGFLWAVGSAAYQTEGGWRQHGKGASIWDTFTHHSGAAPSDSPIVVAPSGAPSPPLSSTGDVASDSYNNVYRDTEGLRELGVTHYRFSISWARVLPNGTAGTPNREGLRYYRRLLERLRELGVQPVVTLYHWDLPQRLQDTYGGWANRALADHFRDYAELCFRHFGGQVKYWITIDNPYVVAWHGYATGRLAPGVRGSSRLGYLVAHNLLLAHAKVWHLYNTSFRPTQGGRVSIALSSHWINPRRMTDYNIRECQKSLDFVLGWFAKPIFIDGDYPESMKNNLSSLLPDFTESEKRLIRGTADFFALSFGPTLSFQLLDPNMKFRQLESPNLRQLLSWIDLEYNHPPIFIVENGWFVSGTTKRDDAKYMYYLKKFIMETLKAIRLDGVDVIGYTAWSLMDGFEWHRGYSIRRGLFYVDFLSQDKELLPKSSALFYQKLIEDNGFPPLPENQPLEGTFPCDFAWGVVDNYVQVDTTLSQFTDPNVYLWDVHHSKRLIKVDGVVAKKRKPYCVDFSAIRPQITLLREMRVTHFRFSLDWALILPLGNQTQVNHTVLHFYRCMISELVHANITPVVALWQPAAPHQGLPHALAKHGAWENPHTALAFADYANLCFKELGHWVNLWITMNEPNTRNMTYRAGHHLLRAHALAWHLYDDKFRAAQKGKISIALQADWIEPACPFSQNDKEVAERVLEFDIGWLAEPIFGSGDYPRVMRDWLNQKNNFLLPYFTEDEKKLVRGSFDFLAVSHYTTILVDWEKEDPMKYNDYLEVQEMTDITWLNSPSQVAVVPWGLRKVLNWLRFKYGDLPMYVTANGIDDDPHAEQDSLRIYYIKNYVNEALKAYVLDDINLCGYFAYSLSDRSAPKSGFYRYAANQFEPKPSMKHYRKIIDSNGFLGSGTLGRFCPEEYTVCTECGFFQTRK

B1: N-terminally hexahistidine-tagged 72-amino acid C-terminal tail of human FGF23 (S180 to I251), FGF23^180-251 (peptide)
peptide: SAEDDSERDPLNVLKPRARMTPAPASCSQELPSAEDNSPMASDPLGVVRGGRVNTHAGGTGPEGCRPFAKFI
notes: Expressed in E. coli; also called FGF23 C-terminal tail peptide; C-terminal tail of FGF23; not shown: N-terminal hexahistidine tag (six His)
B2: FGF23 C-terminal region peptide (S180 to S205), FGF23^180-205 (peptide)
peptide: SAEDDSERDPLNVLKPRARMTPAPAS
notes: Made by solid phase synthesis (GenScript)

Target: T1, 1:1 binary complex of the ectodomains …
Assay: SPR competition; FGF23^28-251 immobilized; reference FGF23^28-251 in solution
Excerpt: To analyze FGF23 binding to the binary FGFR1c-Klotho complex, FGF23²⁸⁻²⁵¹ was coupled to a chip, and increasing concentrations of 1:1 complex of the ectodomains of FGFR1c and Klotho in HBS-EP buffer were passed over the chip. To measure binding of the C-terminal tail of FGF23 to the binary FGFR1c-Klotho complex, FGF23¹⁸⁰⁻²⁵¹ was immobilized on a chip, and increasing concentrations of 1:1 complex of the ectodomains of FGFR1c and Klotho in HBS-EP buffer were passed over the chip. To examine whether the C-terminal tail of FGF23 can compete with full-length FGF23 for binding to the binary FGFR1c-Klotho complex, FGF23²⁸⁻²⁵¹ was immobilized on a chip. Increasing concentrations of FGF23¹⁸⁰⁻²⁵¹ were mixed with a fixed concentration of 1:1 complex of the ectodomains of FGFR1c and Klotho in HBS-EP buffer, and the mixtures were passed over the chip. As a control, competition of FGF23 in solution with immobilized FGF23 for binding to the binary FGFR1c-Klotho complex was studied. Increasing concentrations of FGF23²⁸⁻²⁵¹ were mixed with a fixed concentration of 1:1 complex of the ectodomains of FGFR1c and Klotho in HBS-EP buffer, and the mixtures were passed over the FGF23 chip. […] As a control, competition of FGF23 C-terminal tail peptide in solution with immobilized FGF23 C-terminal tail peptide for binding to the binary FGFR1c-Klotho complex was analyzed. […]

| Binder | rightward shift of the dose-response curve compared to full-length FGF23 |
| --- | --- |
| B1 | ~3 fold |
| B2 | ~6 fold |
